This passage reports Km results from PMC5434896, “Inhibition of PDE5A1 guanosine cyclic monophosphate (cGMP) hydrolysing activity by sildenafil analogues that inhibit cellular cGMP efflux” (The Journal of Pharmacy and Pharmacology, 2017).

The subject of this data set is [H][C@@]12COP(=O)(O)O[C@@]1([H])[C@@H](O)[C@H](n1cnc3c(=O)[nH]c(N)nc31)O2. The data set is described as follows: [3H]-cGMP hydrolysis, snake venom nucleotidase, anion-exchange separation. Type of data set: biochemical, Homo sapiens. Conditions: [3H]-cGMP mixed with unlabelled cGMP […], […] MgCl2, pH […].

As to PDE5A1 (Homo sapiens), the Km was found to be 1.7 ± 0.4 µM.

As usually defined, the Km is the concentration of substrate that gives half-maximal velocity.
